Target: the molecule itself
Test: AUC; sedimentation velocity, 60,000 rpm, 20 °C; CD20 at 0.5 mg/ml in 20 mM Tris pH 8.0, 150 mM NaCl, CALX-173-GK; also at 0.044 mg/ml after dilution with CALX-173-GK or DDM (0.05%) buffer, where the distribution shifts in favour of the monomer

B1: CD20 (full length, wild type, C-terminal His6 tag) (natural protein, human, UniProt P11836 1-297, looked up)
chain: MTTPRNSVNGTFPAEPMKGPIAMQSGPKPLFRRMSSLVGPTQSFFMRESKTLGAVQIMNGLFHIALGGLLMIPAGIYAPICVTVWYPLWGGIMYIISGSLLAATEKNSRKCLVKGKMIMNSLSLFAAISGMILSIMDILNIKISHFLKMESLNFIRAHTPYINIYNCEPANPSEKNSPSTQYCYSIQSLFLGILSVMLIFAFFQELVIAGIVENEWKRTCSRPKSNIVLLSAEEKKEQTIEIKEEVVGLTETSSQPKNEEDIEIIPIQEEEEEETETNFPEPPQDQESSPIENDSSP
notes: CD20, human, UniProt P11836, full length and wild type, from plasmid pETR17026; Integral membrane protein held in calixarene detergent micelles (CALX-173-GK, or DDM after dilution); also called purified native CD20; recombinant native CD20; source: gel filtration in CALX-173-GK; not shown: His6, C-terminal, kept
binding result: binds

— publication PMC6757138, “Biochemical and biophysical characterization of purified native CD20 alone and in complex with rituximab and obinutuzumab” (Scientific Reports, 2019)
